Where a chain is given by its changes, count along the chain named. Several values for one entry are separate records, joined by “and”; a condition that tells them apart may be missing. Identical values can stand only once.
T1: GDF15 (ligand used in the GFRAL/RET cell assays) (UniProt Q99988 197-308, limits assumed)
T1 sequence (looked up): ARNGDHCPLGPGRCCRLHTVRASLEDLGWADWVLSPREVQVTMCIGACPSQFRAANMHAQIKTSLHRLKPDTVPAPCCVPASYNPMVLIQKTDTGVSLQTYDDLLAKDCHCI

T2: Human Activin A Fc (human, UniProt P08476 311-426)
T2 construct: not shown: Fc part
T2 sequence (looked up): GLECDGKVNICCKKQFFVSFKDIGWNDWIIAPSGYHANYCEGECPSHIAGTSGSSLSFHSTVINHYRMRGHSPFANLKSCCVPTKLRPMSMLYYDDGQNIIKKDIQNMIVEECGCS

T3: Human BMP10 (human, UniProt O95393 317-424)
T3 sequence (looked up): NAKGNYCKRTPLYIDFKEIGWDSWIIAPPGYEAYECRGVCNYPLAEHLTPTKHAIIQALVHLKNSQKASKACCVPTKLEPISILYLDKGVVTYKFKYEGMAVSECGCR

T4: GDNF (UniProt P39905 78-211)
T4 sequence (looked up): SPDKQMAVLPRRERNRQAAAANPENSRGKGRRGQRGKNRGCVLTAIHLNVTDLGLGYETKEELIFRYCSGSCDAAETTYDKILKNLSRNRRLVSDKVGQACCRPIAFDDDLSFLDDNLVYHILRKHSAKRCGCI

T5: Human Activin B (human, UniProt P09529 293-407)
T5 sequence (looked up): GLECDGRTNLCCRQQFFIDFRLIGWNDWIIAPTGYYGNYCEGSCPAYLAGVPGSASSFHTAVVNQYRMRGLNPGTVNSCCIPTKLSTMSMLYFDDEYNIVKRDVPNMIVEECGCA

T6: GDF10 (UniProt P55107 369-478)
T6 sequence (looked up): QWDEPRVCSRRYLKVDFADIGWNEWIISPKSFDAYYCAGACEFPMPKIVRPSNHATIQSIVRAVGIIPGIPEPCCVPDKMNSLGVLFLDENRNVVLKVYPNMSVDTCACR

T7: Human BMP9 (human, UniProt Q9UK05 320-429)
T7 sequence (looked up): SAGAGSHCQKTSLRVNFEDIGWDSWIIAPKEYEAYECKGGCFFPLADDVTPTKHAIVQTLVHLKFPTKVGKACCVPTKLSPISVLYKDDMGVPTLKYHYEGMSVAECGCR

T8: Human GDF15 Fc (human, UniProt Q99988 195-308, limits assumed, biotinylated (EZ-Link Sulfo-NHS-Biotinylation Kit) in the SPR assay)
T8 construct: also called human GDF15-Fc fusion; biotinylated Human GDF15 Fc; not shown: Fc part
T8 sequence: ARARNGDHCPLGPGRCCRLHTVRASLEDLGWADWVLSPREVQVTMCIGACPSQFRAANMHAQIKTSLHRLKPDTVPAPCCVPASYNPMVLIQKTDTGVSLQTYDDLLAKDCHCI

T9: Cyno GDF15 Fc (cyno, UniProt G7PWZ3 193-308, limits assumed)
T9 construct: also called cyno GDF15-Fc fusion; not shown: Fc part
T9 sequence: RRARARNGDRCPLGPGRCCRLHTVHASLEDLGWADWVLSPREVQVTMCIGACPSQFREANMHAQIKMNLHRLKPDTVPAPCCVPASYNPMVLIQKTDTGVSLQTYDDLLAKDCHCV

B1: GDF15 antibody agent Clone E, IgG (antibody, V domains shown)
VH: QVQLVQSGAEVKKPGASVKVSCKASGYTFTSYGINWVRQAPGQGLEWMGWITAYSGDTNYAQKLQGRVTMTTDTSTSTAYMELRSLRSDDTAVYYCARGPGQYADVDVWGQGTMVTVSS
VL: DIQMTQSPSSVSASVGDRVTITCRASQGISSWLAWYQQKPGKAPKLLIYAASSLQSGVPSRFSGSGSGTDFTLTISSLQPEDFATYYCQQANSFPITFGGGTKVEIKR
B2: GDF15 antibody agent Clone O, IgG (antibody, V domains shown)
VH: QVQLVQSGAEVKKPGATVKVSCKASGYTFDSLGMSWVRQAPGQGLEWMGYISTYSGDTVYAQKLQGRVTMTTDTSTSTAYMELRSLRSDDTAVYYCARESGQQVSALDPWGQGTLVTVSS
VL: B1 VL with S31R, A91G, N92A, I96L
B3: GDF15 antibody agent Clone J, Fab (Fab, V domains shown)
VH: B1 VH with T52D, D57S
VL: DIQMTQSPSSVSASVGDRVTITCRASQGISSWLAWYQQKPGKAPKLLIYAASSLQSGVPSRFSGSGSGTDFTLTISSLQPEDFATYYCQQANSFPITFGGGTKVEIK
notes: Fab; CH1 and CL of the Fab not specified; also called Fab of Clone J
B4: GDF15 antibody agent Clone S, IgG (antibody, V domains shown)
VH: B1 VH
VL: B1 VL with M4L, S31P
B5: GDF15 antibody agent Clone P, IgG (antibody, V domains shown)
VH: B2 VH with L32Y, M34I, S35H, Y50W, S52T, T53A, Q103T, V104S, D108G
VL: B1 VL with S31R, A91G, N92A, I96L
B6: GDF15 antibody agent Clone T, IgG (antibody, V domains shown)
VH: B1 VH
VL: B1 VL with N92S, S93Q
B7: GDF15 antibody agent Clone H, IgG (antibody, V domains shown)
VH: QVQLVQSGAEVKKPGSSVKVSCKASGGTFSSYYISWVRQAPGQGLEWMGGIAPISGTASYAQKFQGRVTITADESTSTAYMELSSLRSEDTAVYYCARGLAYDGYFDLWGRGTLVTVSS
VL: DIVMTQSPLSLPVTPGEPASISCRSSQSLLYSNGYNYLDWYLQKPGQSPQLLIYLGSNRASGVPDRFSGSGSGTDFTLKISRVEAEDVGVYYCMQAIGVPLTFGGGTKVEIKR
B8: GDF15 antibody agent Clone P, Fab (Fab, V domains shown)
VH: B2 VH with L32Y, M34I, S35H, Y50W, S52T, T53A, Q103T, V104S, D108G
VL: B3 VL with S31R, A91G, N92A, I96L
notes: Fab; CH1 and CL of the Fab not specified; also called Fab of Clone P

Experiments:
[1] = target: T1, GDF15 (ligand used in the GFRAL/RET …); assay: cell-based or functional assay
Human Activin A Fc = target: T2, Human Activin A Fc; assay: BLI Octet; IgG on sensor
GDF8 = GDF8 (UniProt O14793 267-375); assay: BLI Octet; IgG on sensor
Human BMP10 = target: T3, Human BMP10; assay: BLI Octet; IgG on sensor
GDF11 = target: T10, GDF11 (UniProt O95390 299-407); assay: BLI Octet; IgG on sensor
T10 construct: Also used as ligand in the Activin 2B receptor/SMAD reporter assay
T10 sequence (O95390 299-407 limits assumed): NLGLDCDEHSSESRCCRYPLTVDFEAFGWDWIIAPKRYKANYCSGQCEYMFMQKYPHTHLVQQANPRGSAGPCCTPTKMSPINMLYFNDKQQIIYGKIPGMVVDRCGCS

GDNF = target: T4, GDNF; assay: BLI Octet; IgG on sensor
Human Activin B = target: T5, Human Activin B; assay: BLI Octet; IgG on sensor
GDF10 = target: T6, GDF10; assay: BLI Octet; IgG on sensor
Human BMP9 = target: T7, Human BMP9; assay: BLI Octet; IgG on sensor
Human GDF15 Fc [2] = target: T8, Human GDF15 Fc; assay: BLI Octet; IgG on sensor, 100 nM antigen (avid)
Description: Briefly, ForteBio affinity measurements were performed by loading IgGs on-line onto AHC sensors. Sensors were equilibrated off-line in assay buffer for 30 min and then monitored on-line for 60 seconds for baseline establishment. Sensors with loaded IgGs were exposed to 100 nM antigen for 3 minutes, and afterwards were transferred to assay buffer for 3 min for off-rate measurement. All kinetics were analyzed using the 1:1 binding model.

Cyno GDF15 Fc = target: T9, Cyno GDF15 Fc; assay: BLI Octet; antigen on sensor, 100 nM Fab (monovalent)
Human GDF15 Fc [3] = target: T8, Human GDF15 Fc; assay: as above
Human GDF15 Fc [4] = target: T8, Human GDF15 Fc; assay: SPR Biacore 8K; biotinylated antigen captured, Fab analyte
Description: Kinetic analysis was conducted at 25° C. in HBS-EP+running buffer (10 mM HEPES pH 7.4, 150 mM NaCl, 3 mM EDTA, 0.05% Surfactant P20) using a Biacore 8K optical biosensor (Cytiva, Marlborough, MA). The sample compartment was maintained at 10° C. for the duration of the experiment. The Biacore 8K can analyze up to 8 separate interactions in a single cycle.
Each experiment cycle began with an injection (300 s at 2 μL/min) overflow cells 1 and 2 of a 1:100 solution of biotin CAPture reagent (Cytiva) in running buffer. This was followed by an injection (45 s at 10.0 μL/min) of biotinylated human GDF15 (5 nM) overflow cell 2. […] The dissociation of the antibodies were monitored for 3420 s. Finally, an injection (120 s at 10 μL/min) of regeneration solution (6 M Guanidine-HCl in 0.25 M NaOH) overflow cells 1 and 2 prepared the sensor surface for another cycle. Several blank buffer samples were injected (300 s at 30 μL/min) overflow cells 1 and 2 throughout the duration of the experiment and used for reference surface subtraction—each were monitored for the same amount of dissociation time (3420 s) and regenerated under the same conditions as those for the Fab sample injections.

| Binder | GDF15-GFRAL RET pERK IC50 (pM) [1] [pM] | GDF15-GFRAL-RET Luciferase IC50 (pM) [1] [pM] | binding result (Human Activin A Fc) | binding result (GDF8) | binding result (Human BMP10) | binding result (GDF11) | binding result (GDNF) | binding result (Human Activin B) | binding result (GDF10) | binding result (Human BMP9) | Kd (Human GDF15 Fc [2]) [nM] | Kd (Cyno GDF15 Fc) [nM] | Kd (Human GDF15 Fc [3]) [nM] | GDF15 GFRAL RET pERK Fab IC50 pM [1] | Kd (Human GDF15 Fc [4]) [nM] | koff (Human GDF15 Fc [4]) [s⁻¹] | kon (Human GDF15 Fc [4]) [M⁻¹ s⁻¹] |
| --- | --- | --- | --- | --- | --- | --- | --- | --- | --- | --- | --- | --- | --- | --- | --- | --- | --- |
| B1 | 35 | 190 | no binding (tested: 100 nM) | no binding (tested: 100 nM) | no binding (tested: 100 nM) | no binding (tested: 100 nM) | no binding (tested: 100 nM) | no binding (tested: 100 nM) | no binding (tested: 100 nM) | no binding (tested: 100 nM) | 0.278 | – | – | – | – | – | – |
| B2 | – | 150 | no binding (tested: 100 nM) | no binding (tested: 100 nM) | no binding (tested: 100 nM) | no binding (tested: 100 nM) | no binding (tested: 100 nM) | no binding (tested: 100 nM) | – | no binding (tested: 100 nM) | 0.279 | – | – | – | – | – | – |
| B3 | – | – | – | – | – | – | – | – | – | – | – | 0.769 | 1.28 | 75.1 pM | 0.0884 | 0.000404 | 4.57e+06 |
| B4 | – | – | no binding (tested: 100 nM) | no binding (tested: 100 nM) | no binding (tested: 100 nM) | no binding (tested: 100 nM) | no binding (tested: 100 nM) | no binding (tested: 100 nM) | no binding (tested: 100 nM) | no binding (tested: 100 nM) | – | – | – | – | – | – | – |
| B5 | 35.6 | – | no binding (tested: 100 nM) | no binding (tested: 100 nM) | no binding (tested: 100 nM) | no binding (tested: 100 nM) | – | no binding (tested: 100 nM) | no binding (tested: 100 nM) | no binding (tested: 100 nM) | 0.274 | – | – | – | – | – | – |
| B6 | – | – | no binding (tested: 100 nM) | no binding (tested: 100 nM) | no binding (tested: 100 nM) | no binding (tested: 100 nM) | no binding (tested: 100 nM) | no binding (tested: 100 nM) | no binding (tested: 100 nM) | no binding (tested: 100 nM) | – | – | – | – | – | – | – |
| B7 | 254 | 200 | no binding (tested: 100 nM) | no binding (tested: 100 nM) | no binding (tested: 100 nM) | no binding (tested: 100 nM) | no binding (tested: 100 nM) | no binding (tested: 100 nM) | no binding (tested: 100 nM) | no binding (tested: 100 nM) | 0.235 | – | – | – | – | – | – |
| B8 | – | – | – | – | – | – | – | – | – | – | – | 1.72 | 3.68 | 701 pM and 1000 pM | 0.126 | 0.0021 | 1.66e+07 |
